The values below come from the supplement of paper PMC11502859.

Where “and” joins values, the source holds several entries; their conditions need not be identical. Equal entries are not always repeated.
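Also: lentiviral eGFP-IRES-mCherry reporter pool sorted by FACS 96 h post-transduction, gated on mCherry-high cells, Illumina read counts normalized per million, median across four biological replicates.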

The subject of this data set is HEK293T. In words: median enrichment of reporter reads in eGFP-reduced (low/intermediate) vs eGFP-high sorted cells (eGFP-extension fusion abundance) (ratio); higher = stronger loss of eGFP-fusion protein abundance (more destabilising extension).
For the substance “YPCTISPSSFLGQPGPALVCGDWRDQERVWRPPEGCCLPGLQ [MLST8]”, the median enrichment is 5.76. To YPDPHRCCDLFVLSTVE [FGF14] belongs 9.33; to “YPGASWLRLAPSGHLPWSDPFQMKCGDIDLFFFFFETEFHSCCPVWSAMAQSQLTATSASWVQAILLPQPPK [SPC24]”, 7.7. For YPGGRVAAGGACAEAS [SLC7A5], the median enrichment turned out to be 1.04.

For YPGSFYGHE [ZNF700], the median enrichment was determined as 0.482. On to YPHRGAGEGALDN [TMEM203], for which the median enrichment is 0.51. To YPILKVALFLLDLAELVAWGVGEIKRT [SPCS2] belongs 11.7; to YPLLKECEI [NCOA1], 0.498. Turning to YPLRDSRCYLSSVPHFL [SYT9], the median enrichment was found to be 12. Under YPNIIQGTEIKELRFKHKCLAQTYL [EEF1E1] stands 7.38; under YPPAQPRTDMNIGWTEVASV [PIP4K2A], 5.83; under YPPQGPAPPRPGE [WFIKKN1], 0.52. Consider YPQPPPHHPLPKSSACSPGERTAGLSY [COTL1], for which the median enrichment came to 11.5.

YPSL [KCNK2]: the median enrichment stood at 0.357. To YPSLCHWVECAFRAS [ARHGEF6] belongs 7.57; to YPSQGCSSVPSRRMWQGRAGSE [SERPINA4], 0.599. For the substance YPSVLHTARGPRMPRPPLAPAGREPDHLPC [CHI3L1], the median enrichment was determined as 2.05. With “YPTVGPGWAGRSWCVTGCPGRHVLALTVPGLSLPAAAIQEIVATVTLTSSAWFLPLPSGVDKGPLIIFSFVFL [DVL2]”, the median enrichment turned out to be 7.88.

On to YPV [HNRNPUL1], for which the median enrichment is 0.542. To YPVGGWRVCHSNLIESRKTEGNAAAN [OR52E8] belongs 4; to YPVLEGTGGIIFNDLLN [NXPE3], 1.65; to YPVTL [SMCO1], 0.416.

As to “YPVTPRDCLVQVVAAGGTHAAPRSEQTLPCRPAPAGPDGPLWRLDLLGQAALGLSAPSCLSRCDRARPKPGCTLLDWASLHCL [MLST8]”, the median enrichment was 4.58. To YPWALPCYPFSPLEVPNLLHPLPLL [PPRC1] belongs 3.39; to “YPWPPGLASSFWVSQAPLALTPLARSPSFRSS [PPFIA4]”, 16. Under YPYGE [PRKCH] stands 0.563; under YQAQLQKDLTCAHKILL [LCN6], 7.65; under “YQFCPTSLSPQPLQSSVTCCGLYSGSALATSPNISSSFSPSDLTVQ [JOSD1]”, 7.58. YQGPLDL [OR56A3]: the median enrichment was determined as 0.714.

Take “YQGPSQYPWRTREIAPYRQWRGVPSHRQEPEAQAAHPFQPSRTHTDGREGGHSMNYC [XYLT2]”: the median enrichment turned out to be 1.21. To “YQHWPSVFLGGTSQEPLPALLESQRGQEAVAGASTQLG [GDF5]” belongs 1.15; to YQIYRVEGLIGEGRSSGSTQELDWKRSL [SON], 9.11; to YQLFAISCTQTCVIYAPGNQ [MAST2], 7.02. To YQLINLE [BRWD3] belongs 0.91. To YQNNGFL [GNL3] belongs 1.22. As to YQSVL [RNASE9], the median enrichment was found to be 1.04. Turning to “YQVAELGPLGQGAQATSSFVVTKQGSPFPFLLPYFVQRTRVIYIYICICLYPSPHLSDSALGTQLWAARGAVPCGSSCVCVPS [SCAMP5]”, the median enrichment was found to be 8.36. With YQVIAEQMNRPPASVANTRSISLGQWTNT [LCP2], the median enrichment was 2.43.

Consider YRA [SYNE2], for which the median enrichment was determined as 0.591. With YRCEGIGETLGWLVMVSIAGHQKLDS [B4GALNT2], the median enrichment stood at 17.4. For YRDLQRPGQK [PEG10], the median enrichment stood at 12. To “YRGPCRHHPPPSPCPQPVCPVPCPPQAWWWQWRRLRRLKRLTGRGAFCLAHCPDDPPAPSRLQQQSPRRTGWTEEKEVDCCTH [SOX10]” belongs 3.52; to “YRGRPGTGGMSCRPQPGRTPHSLSRQRGQNRPAQPWSPLHSPRPLAPALPTSSAWSEGAARAQQRRGGRLWPPTSRPVPAGTA [ARHGAP39]”, 7.75; to YRHLVVFWEQKNYFLLTRLFVLKTIFLNLS [EP300], 14. To YRHQVW [SMAD3] belongs 1.22; to YRKGW [C9orf131], 0.926. To YRKVSVSPNPHSNEF [GPR22] belongs 41.8; to “YRLFVHYCFHFVPRVKQTTEKSNQVITYPSAGDFDY [ZBBX]”, 10.1. For YRLLSKHRFSR [Degron FEM1A/C], the median enrichment is 5.74. With YRMETQKT [USH2A], the median enrichment worked out at 0.809. To YRNLENYTCFSEIITEYT [ABCD3] belongs 11.4; to “YRNSEVQPLENNIQEGHIDYKLMSCPICNSGS [FRRS1]”, 25.3. To YRNSNPGVPV [INPP1] belongs 0.415. Under YRQK [CCR2] stands 0.225; under YRRIYVLFKQEKVTLPMLSPLHNI [CDH10], 8.74. “YRRLPRAPPHSMTRLWIPHCTSHSPLSAPSPPCWSCSHTPGTGLGHPLLPACVFLILGRPG [KRT71]”: the median enrichment was 6.31. To YRRQRAWCDLVGSGNGRKRSPP [BTBD9] belongs 6.86. YRSAVQENVMLGTPSSVVLASHASAAELAE [DEFA4]: the median enrichment turned out to be 2.45. Under “YRSRHLPQTWGGGPASSSTTLAPSLLTWVLAF [SCRIB]” stands 13.1; under YRTDVE [HEY1], 0.613; under YRTGIHEQKAESQTCLS [CD5], 0.587.

On to YRTM [IAPP], for which the median enrichment is 0.785.

Consider “YSASSNLVFSKKNIYYLFLACHFNSSRDFTAGIF [RBM48]”, for which the median enrichment is 41.8. To YSCVVKINMRKLPCNLNLGFPCNRN [IL23R] belongs 22.3. To YSCVVSLLEIELA [DGKB] belongs 7.27; to YSFKSNRIIFHLAVVRSN [SS18L2], 12.1. Take YSFTNQVP [SMAD2]: the median enrichment came to 0.532. To “YSGLPVASSSTTELQTNHPKCRLDGEGKDWGGRVNSEGCPLPIPPGP [PODXL]” belongs 21.5; to “YSHPPPLGVPNVPSAVPAAAPLHPQLHHPLSHSRSCTPAFQLCPRGF [PRKCG]”, 3.59. As to YSPQAD [YAP1], the median enrichment was 0.413. Under “YSPTPTAAYLHFQFLRGTEASSQHAANLWSLILTPSPTPVVGLYYV [KIF5A]” stands 6.66; under YSQERWKQVTSTIA [OR5K1], 7.21; under YSQILALLSG [CHRNA9], 12.2. To YSQLKECEILNY [MTREX] belongs 1.31; to “YSQPQLMPSQSQPPVTPSQSQPRVTPSQSQPHVTPYRSKSGKQKQSVPIPKTVSRKGTLKK [ADAM29]”, 0.413; to “YSQRGGQSQSQLLSCPLLPARALVLTPSCIPHLRSVY [SLC2A11]”, 11.1.

For “YSQTNTPYVSVNPCYLSRVCYFPSHRPNPWSPRGSHTTAITQCRGHA [HIP1]”, the median enrichment worked out at 2.78. Under “YSSSPVDEHLGWKFCSHTQDTAQDPAGVFFSVVRCTIGLMSIVLEDERKLRRTRSTDPDVIKHFVVSLSHR [BICD1]” stands 3.59. To YSTVI [C5orf15] belongs 0.763; to YSV [ILF3], 0.744. To YSWANDH [SEMA4F] belongs 0.76.

With YSYSVMTLVIFCVL [HTR1D], the median enrichment was 15.3. Under “YTAQGSPTQAPTLLLLALLPASVQRTGRYWWEALCLAPQLPVWASKHNGPSRSLVETGVVVPNLPSALPLHRTQRPQALQGVL [AMIGO3]” stands 8.02. Under “YTCGEGLSWTRPLPTASSLQVQLKPLSSGGRHVERAGRPTAAENRAGTGSSCSAFPSFGDAGSAAPKHLPAPHSTVSEDSSLL [CDC14B]” stands 0.953.

On to YTCPYSSRALNLLLTNHLLRC [KCNU1], for which the median enrichment was determined as 11.9. Under YTDYIGSFELTSDKGGKFRQHYDLINFIF [MSH6] stands 21.1.

With YTHMYDPYKCFKILKM [TRDN], the median enrichment worked out at 11.1. YTKYLKMGIILI [ST8SIA6]: the median enrichment is 10.3. Under YTLENMYVWLIKCFKLN [NOTCH2NLA] stands 7.83. Regarding YTLGKITYLSSCE [OR10G8], the median enrichment turned out to be 13.7.

For the substance YTPLCHFSGDPAFLIWK [CENPE], the median enrichment turned out to be 5.97. To YTPLFVVHYFD [KCNQ2] belongs 7.27; to YTPNNLLPPLAPVAYISS [TMEM169], 11.3; to YTQKTNSIQSQ [ENDOD1], 1.93. To YTSGKKIFTCAGL [DDX46] belongs 3.47.

As to YTSRTAT [NCOA6], the median enrichment worked out at 0.753.

YTSVLNQDLTQKD [GTF2IRD1]: the median enrichment was found to be 0.784. To YTTMYFNKDHQC [LRP2BP] belongs 1.43 and 3.14; to “YVAMVKVSVAAAAMASRRRCWDCFALEPASGCPLQWLCYCMDCILDFMCMSQ [DYNLL2]”, 10.8; to YVCAEESKTPFRATIPQ [SLC22A25], 1.62. To YVCCLPSPSGHTLLYHTTGLDSGWRQIDTV [LIG3] belongs 5.91; to YVD [GLUL], 0.387; to YVDLRQTLGGVKESHRYPKE [MAGEH1], 3.34. To YVEGYKC [FIBIN] belongs 1.05; to YVFLKIKLKKEIFFLIKL [GALNT3], 6.22; to YVFLQCVLQARFIITYRFMISKIK [CLEC3A], 9.75. In the case of YVFVIFNCSML [CRISP1], the median enrichment was 8.9. Under YVGRSPRPLPSSGDNQQ [CPNE9] stands 0.56; under YVHGLSLYPTALLCDSLMKLVTFTSQNFG [KDM4D], 7.32; under YVI [UPRT], 1.22.
